Laboratory results as given in the domain aggregation screens of Martell et al. (2025).

Experiment: soluble fraction after stress (log2 fold change); higher = more stays soluble; pooled small domains, quantitative proteomics
Settings: stress: 50 degC
Method in brief: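 Pooled custom libraries of small protein domains were each held under stress at 50°C. The read-out, high-throughput quantitative proteomics, tracked how much of each protein stayed soluble. This is reported as a base-two log fold change used to indicate aggregation propensity. Higher values mean more protein remains in solution.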
For “HMFYQLTENQRRILSSLEQNPRVSAAHLAEEIGISSRKVENNLKKLKEIGLLQRHGSPRKGYWSINQGW”, the “soluble fraction (log2)” value was -0.623.
For “HMGAAAQLLHAVVLRVPAEDTMKFVSETPELRRYLGAPLGPTAALVRPGQEQELAAALQAHGILVEFDE”, the “soluble fraction (log2)” value was -0.0602.
In the case of “HMGAAITEAEAKQIALDHAGVSESETERMRVKLGRDDGVQEYEVNFYVGNREYDYDINAATGEIRSHDSE”, the “soluble fraction (log2)” value is reported as 0.0811.
In the case of “HMGADPTTWPEIDAFVGRVAVTATGLFPSGQVEIDGRRFEARLAFGVAEPGARVVVRRRTDFGLLVEKETR”, the “soluble fraction (log2)” value is reported as -0.389.
In the case of “HMGADRLVGMTAIVTATIDPNDTDRKGRVQVEGEVWSALSDGRLIITEGSKVRITEMHGTRVRVEAI”, the “soluble fraction (log2)” value is reported as -0.0351.
For “HMGAEWTEMRVWTSTSGSKVTAEASSLTNGQVTLETKSGKRITLSIRKLVEADQKFLEAHFSK”, the “soluble fraction (log2)” value was -0.947.
In the case of “HMGAGLLEPEPLKIEIQETQERLQKLQKALERDTETADSKERIKRAIEAHKARISQLQGLIE”, the “soluble fraction (log2)” value is reported as 0.0635.
For “HMGAKVFTVPNLIGKYAIEAGIILKKEGLSEGEVKEENSDKYAAGQIIDQYPAADSPAKENDKINYVVSIG”, the “soluble fraction (log2)” value was 0.00836.
For “HMGANSAYMAMRDRIQQRLLAELSPGVTRSDTAEVRRVVERIFNETTAELGLPLSRLERNDIFDLVLADIL”, the “soluble fraction (log2)” value was -0.792.
In the case of “HMGAPLAVGDSVRVVVSGPRAFVYTAPNGALSGAVRNGAAFTVLELSPDNTWARIGSGEWIKVEFLATG”, the “soluble fraction (log2)” value is reported as 0.0428.
For “HMGATYSQFLDQVDGGNVQKVTFSGDMRSGTNQISYTTRSGQSATITAPMDRDLINILRAKNVEIVQEEP”, the “soluble fraction (log2)” value was 0.026.
With “HMGAWQQTGFFRNRENAESLAEVLRQRGFSPVVREDTRPSGTVYYAVLVPDDGTTAARLKDAGIDSYPV” the “soluble fraction (log2)” value was 0.0695.
With “HMGDDYFTILGIERDATTDEIRSAYRRLSKKIHPDAQGSSALFRQVQEAYETLIDPSSRARYVAELNASQG” the “soluble fraction (log2)” value was 0.113.
With “HMGDERDRLLLARGKRIYQELIGSDRENVAAALREFEAVLAVNNRRAIHVMRQRLAELFGVYEEFLNEEFL” the “soluble fraction (log2)” value was -2.77.
With “HMGDEVAVTEILVKVGDTVEADQSLLTVEGDKASMEVPAPFAGVVKAIQVQLGDKVVTGSPIMLFEV” the “soluble fraction (log2)” value was -0.00831.
In the case of “HMGDFNYVMPDFRGLEAHDVSSFLNRNGFLLRPTEHEVSFTQRPGLILMHYPEPGYPFSRSSPITLVVS”, the “soluble fraction (log2)” value is reported as -1.03.
In the case of “HMGDGMEVWVNGSPVNLTGKDSFIFVDIFDFIDFDLTASKGRLIVIKVNGEYAEYTRPLHNGDTIEIYWEE”, the “soluble fraction (log2)” value is reported as -0.0714.
For “HMGDGRVGVITASIAYEYAKEVFPEGTSFLKLGLTFPLPMDLIRDFASKVEKLYVIEELEPL”, the “soluble fraction (log2)” value was -0.215.
With “HMGDHYTALGLSIDATPEEIRSAYFLAARRSHPDANPDAQTTEWFLRVQEAYDILSNPRRRAEYDASLP” the “soluble fraction (log2)” value was -0.554.
With “HMGDKRPIAVGDYVKLEGQDTPGQVLSISGKNATVGFGMLKTTVKLDRLRHTMAKPQTGASAGVR” the “soluble fraction (log2)” value was 0.178.
For “HMGDKVTIPNLIDMKLTDAQNQYKPQGFSIVKNGERESDKEAGTILEQDKAAGTEISGKDIRIFVVVSSGS”, the “soluble fraction (log2)” value was -0.00368.
In the case of “HMGDLAAAGNHTLEVMGFPQHPDESYRHFVGNGIPKLIERMLPAGHDKETEQKAYDIFMEYYSAHK”, the “soluble fraction (log2)” value is reported as 0.227.
In the case of “HMGDPMAIMQLSSNTTPEYWEAYQKYHIQEYEQSNFIRYVNGISVLDDDFVDKVLITIDQHGRIFSELKS”, the “soluble fraction (log2)” value is reported as -2.41.
With “HMGDSEMPVSEVVRLAKLDQISSIEISGTKLTIITNNLETYTSRIEENSTIIEILQRAGVDIGGLEIYPHG” the “soluble fraction (log2)” value was -0.492.
With “HMGDVSGFLRGVLADGPVPAKTVFSEASGAGYSRDQIQRAARKIGVERRKTGMAGGWVWELEP” the “soluble fraction (log2)” value was 0.014.
With “HMGEAYVVPNVKNKTLGEAQLALHNQKLEGLVVDSSYVKGLPDGMILDQNPAGGARVKEGRTIYLTITTS” the “soluble fraction (log2)” value was 0.00953.
In the case of “HMGEDFPYVAYATDSVRLRSKPSSSGDILAVIRQGDAVLITGSDGNYKIVEYEGRKGYVISAFLSQTP”, the “soluble fraction (log2)” value is reported as -0.199.
For “HMGEDLTIDQLAAEVDMTVRNIRAHQARGLLPPPTIKGRIGYYGPLHRRRLQQIRAMQEEGLNLAAIAKVV”, the “soluble fraction (log2)” value was -0.609.
With “HMGEDPYQMLGLTRQASDEEVRLAWRKLMRENHPDSLASRGVPQEFVKRATEQVAQINAAWDRIKRERG” the “soluble fraction (log2)” value was 0.0386.
For “HMGEELIEIQNLRNKERREAEAILKNLDLVPVIQEQFDDTVPINRVITTDPGPDSTVKKGTTVMIYVSKGP”, the “soluble fraction (log2)” value was 0.253.
In the case of “HMGEENLKYPLLTDGSVKTTVLEAIDKDEKWLREELAKQGYDDLSKLFLVDYLGGQLVVTPY”, the “soluble fraction (log2)” value is reported as 0.277.
For “HMGEESIAELISNPKLSDAKRTVILDLLSRGLTVDQIKPYIQSDDPYTAEQLQFELYKLFFTQI”, the “soluble fraction (log2)” value was -0.228.
In the case of “HMGEGRVRLAQEAANRFMTAMAGDRPGFEEAGRALFAGDRARFHAETEGWPEDIRDHARRLAEPALQ”, the “soluble fraction (log2)” value is reported as 0.0288.
In the case of “HMGEIILVPDVKAQGVSDARYTLNQAGLDAVIADSSYNRNSPPGAVLEQMPAPGSKVKSGHAIYLIINTT”, the “soluble fraction (log2)” value is reported as 0.053.
For “HMGELTSILVATKQIEPGETLSSSNTQVKSWISDLIPEGAITNPESVMGRTVSSVIGVGMPVVSLHLR”, the “soluble fraction (log2)” value was 0.0954.
For “HMGELVIPPLRERTVVDAVAEAERLGFVVQVEPVASSLPEGRVLGQSPEPGTRARKSQVVVLQVSRG”, the “soluble fraction (log2)” value was -0.148.
With “HMGEPLTVVAAAGGDRLDRWLAGQLAGRSRAEIQRWIEAGQVTLAGRSLKASYRLSAGDAIDVAIPPPE” the “soluble fraction (log2)” value was -0.129.
For “HMGEPVEIEEPITVRSLSEALGLKSSAIISHLMRQGVFATINQNLDKETAELIAAEYGIELRIK”, the “soluble fraction (log2)” value was 0.00995.
In the case of “HMGETDDDFRELEEFVEKTKFDKLGTFMYSKEEGTPAARLPEQIHGNTKKSRYNKIMSIQQKVSNEN”, the “soluble fraction (log2)” value is reported as -0.0112.
For “HMGETPEILRDWEAAQNAVNDMLSKYAPGGYMGKIIYPLLTPLKERLEAGERTPDLYNAIVEAT”, the “soluble fraction (log2)” value was 0.0804.
In the case of “HMGETYTIPDVRGYTLEDAMELPEIKENGFTIIEGRQIVDADVPVGQIISQTPEAESIAKSNVKEITVNIS”, the “soluble fraction (log2)” value is reported as 0.0323.
In the case of “HMGEVPVETKDGIKVHVHTVDKSQTAYGISRLYNITLNELYESNPEAKLELSIGQKLYFPVK”, the “soluble fraction (log2)” value is reported as -0.154.
With “HMGEVVRAPMPGNVLKMEVAQGQEVEEGDLLLVLEAMKMENDIVAPKGGIVIQLVVDKGMVVETDDPLVVI” the “soluble fraction (log2)” value was 0.0323.
In the case of “HMGEWNSVFSVPSSVVDKHLKTASSVYVKVLLVILRNAGNRISDQQISEQLSVPVDEVQEAIRYWNAAGIF”, the “soluble fraction (log2)” value is reported as -0.247.
For “HMGFAANLSRLMEYHNISMYRLAKEVGVHQTTVKNWLEEESEPKIAALEKIVGLLGVSYDELLG”, the “soluble fraction (log2)” value was -4.56.
In the case of “HMGFLTGNTQGEVNRKTKNQMVNIFLPTTPNPTSGFLLFVPKKDILRLTMTVEEGIKMIISAGMLTPS”, the “soluble fraction (log2)” value is reported as -0.173.
With “HMGFTDREREIIRNDLVATGRELFGTFGLKKTSIEDLTKAVGIAQGSFYTFFNSKEELYLEVMDREGEA” the “soluble fraction (log2)” value was -0.851.
In the case of “HMGGALSPDFGWLAMIDPDEGRAITLYDIASGEAIAVLDTHEARVAALAWSPDGTRLASGDQNGLIVQWEI”, the “soluble fraction (log2)” value is reported as -0.432.
For “HMGGEEPYGSGSLRLAAGAVVPSGYTIKGNEDSMLYHTTESPWYKQTIAEVWFNAESAAQRAGFTRWDAKD”, the “soluble fraction (log2)” value was -0.114.
For “HMGGEIGSGKNGYVAFYKGKKVDVKADSMYGAQKTAAKYFNAKKEYDVNVVLAEVDGKQYVQS”, the “soluble fraction (log2)” value was 0.343.
For “HMGGGVERLTPRQREVLGYMAEGRSNSWIAGAIGFSEKAVVQHTSKIYDALGLAVDADDHRRVLAVLRYLT”, the “soluble fraction (log2)” value was -1.44.
With “HMGGKWKLRILWHIHHGDTRFSTLKRGIPEISEKILAQQLRELEEHQLIKRRVVTVMPPHVVYEL” the “soluble fraction (log2)” value was -2.28.
With “HMGGLAEIILNAIEIEGGFLPITDKSAPELIQSRLGMSKKAFKEAVGTLYKNRDIAIEPNGLRKI” the “soluble fraction (log2)” value was 0.0577.
For “HMGGLALAEREVVEWLSQRNLLPSPDVVARAAAHPDGLGWLERSLAVLEGPRLFLGLGDLVPEP”, the “soluble fraction (log2)” value was -0.411.
In the case of “HMGGLAVQLVHAMTDQIRSGRLKAGDKLPTEAAIMKDFGVSRTVVREAISRLQASGWVDTRHGIGTFVLHQ”, the “soluble fraction (log2)” value is reported as -1.3.
For “HMGGLIEPLSARELEVLELMSLGKTNQEIARDLVVASGTIKAHAASIYRKLDAANRTEAVTHARELGIL”, the “soluble fraction (log2)” value was -0.0084.
In the case of “HMGGPEVLELEDVKVGSPGPDEIKVTNHAIGLNYIDTYHRSGLYPLKLPSGIGLEAAGKVEEIGSNV”, the “soluble fraction (log2)” value is reported as 0.0604.
In the case of “HMGGQEEALNRLVLRELLGTLEKKERDLIVRRYFYDQTQTKIAEALGISQVQVSRMEKRILKKMREGF”, the “soluble fraction (log2)” value is reported as -0.914.
For “HMGGRSARVRRAVLDAVVELLGEGGVRAVTIAEVAKRSGVNASSIYRRWRSIDALILDAAQDL”, the “soluble fraction (log2)” value was -1.81.
For “HMGGSDIYLGAFNIPQGSVRVTSGGQALTEGKDFTIDYNLGSVKIINQAILNSGIPVSVSYENNAG”, the “soluble fraction (log2)” value was 0.123.
In the case of “HMGGSLADAKRFLADLLADGPVPAKGVRADADGAGHTWPTIRRAQKALGIEATKTGMKGGWVWALPR”, the “soluble fraction (log2)” value is reported as -0.034.
In the case of “HMGGSVYTVQKGDTLWSIAKEQLGSPLRYAEIYDLNKDVIEEAARGRGKKDSSNGHWLVVGTSLQIPEAT”, the “soluble fraction (log2)” value is reported as 0.42.
In the case of “HMGGTAGKINAIGVNFRTGPSTSYTSLGLLGKDTAVTVIGTSGKWYKVTIVSTGKTGYVYATYVNLTP”, the “soluble fraction (log2)” value is reported as -1.81.
In the case of “HMGGVIEDDRGQWAHPGEVTKINSNNITMKGVDFPVLGISDTGDKKMMQPGKDYKFDGNSVTEYPMA”, the “soluble fraction (log2)” value is reported as -0.197.
With “HMGGWEEGVYVVREGDTLSDIVHDAVKGTEIHPDFILNAIVRVNPSAFVRGNPSWMLAGKKIK” the “soluble fraction (log2)” value was -0.0469.
For “HMGGYVTGTIDLTKFGYAFVITEESEDDVFVAARNLNTALHGDQVKVLLYARHKGKRPEGEVVEIISRSRA”, the “soluble fraction (log2)” value was -1.11.
For “HMGHEEPITFDRLPQAAQTFLKTHFDTLTVAYIVADRKFMGVEYEVKYTDRTEVDFRSDGQWESV”, the “soluble fraction (log2)” value was 0.0592.
In the case of “HMGHKTLTVELQEKIENLPQTLDKYNLTLGNNKMSVDYTYSVKEKQTGITNLLQDLKEHKFDIVYLVGQDN”, the “soluble fraction (log2)” value is reported as 0.251.
